We go through one molecule from patent publication US20180105596A1 (ELSALYS BIOTECH, published 2018).

Experiment [1] has as its target T1, recombinant His-Strep tagged human Tyro3 extracellular domain (human, UniProt Q06418 41-429).
T1 construct: also called hTyro3 ECD; full Tyro3 ECD
T1 sequence: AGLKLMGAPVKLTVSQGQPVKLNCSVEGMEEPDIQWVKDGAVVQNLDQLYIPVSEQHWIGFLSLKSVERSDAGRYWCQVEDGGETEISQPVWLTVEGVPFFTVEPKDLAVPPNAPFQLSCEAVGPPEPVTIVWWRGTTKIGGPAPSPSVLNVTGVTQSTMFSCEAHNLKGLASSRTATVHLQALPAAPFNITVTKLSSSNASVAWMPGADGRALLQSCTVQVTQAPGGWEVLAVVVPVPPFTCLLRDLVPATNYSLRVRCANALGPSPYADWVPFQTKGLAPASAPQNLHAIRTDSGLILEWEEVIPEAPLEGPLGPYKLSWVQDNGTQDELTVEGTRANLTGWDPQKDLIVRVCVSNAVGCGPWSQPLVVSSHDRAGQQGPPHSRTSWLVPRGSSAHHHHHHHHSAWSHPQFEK
Nature of the experiment: BLI (Octet K2), IgG on AHC tips, hTyro3 ECD analyte, 1:1 global fit; kon Error 1,04E+03. As for the experimental part: (§1) Affinity determinations were performed using biolayer interferometry on an Octet K2 instrument (Pall/ForteBio) equipped with anti-Human Kinetics (AHC) disposable fiber-optic biosensor tips. All experiments were conducted at 30° C. in the recommended Fortebio running buffer (PBS with 0.1% (w/v) bovine serum albumin (BSA) and 0.02% (v/v) Tween_20). This buffer was also used for dilution of ligand (here the antibody) and of the analyte (here the extra cellular domain of human Tyro3 protein). Samples in a 96-well microplates (No. Black polypropylene low binding plates, Greiner Bio-One, Frickenhausen, Germany) were agitated at 1000 rpm. […] Between measurements, the anti-human Tyro3 biosensor surfaces were regenerated by exposing them to 3 cycles of 5 sec in 10 mM glycine, pH 1.5, followed by 5 sec in PBS. Association phase was measured for 300 seconds, dissociation phase depending on the interaction for 300 seconds depending on dissociation step. […] Affinity, association (kon) and dissociation rate constants (koff) for each antibody were calculated applying a 1:1 interaction model fitting global, Rmax linked by sensor) on the ForteBio data analysis software 9.0.
(In general: BLI is a label-free optical method that tracks binding on a fibre tip over time.)

The target in experiment [2] is T2, cynomolgus Tyro3 ECD, His-Strep tagged.
T2 construct: also called cyno TYRO3 ECD 8hisstrep
T2 extracellular domain: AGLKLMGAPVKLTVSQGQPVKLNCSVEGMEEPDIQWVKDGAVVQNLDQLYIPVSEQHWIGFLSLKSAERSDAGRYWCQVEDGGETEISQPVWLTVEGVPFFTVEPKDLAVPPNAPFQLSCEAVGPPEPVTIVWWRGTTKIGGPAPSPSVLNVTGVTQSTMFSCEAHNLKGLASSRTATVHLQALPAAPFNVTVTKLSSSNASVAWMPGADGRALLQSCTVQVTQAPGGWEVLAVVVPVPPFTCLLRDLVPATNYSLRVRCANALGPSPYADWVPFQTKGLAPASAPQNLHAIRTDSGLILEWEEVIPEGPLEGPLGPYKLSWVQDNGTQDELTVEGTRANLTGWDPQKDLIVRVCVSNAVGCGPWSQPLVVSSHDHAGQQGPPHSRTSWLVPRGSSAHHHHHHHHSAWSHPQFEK
Nature of the experiment: sandwich ELISA, Strep-tagged cynomolgus Tyro3 ECD captured on StrepMAB plate, IgG 3-fold from 3 µg/mL, anti-human IgG1-HRP. As for the experimental part: [The procedure below names another species; the source lists this species under the same test.] (§2) A double sandwich ELISA was developed. This assay consisted in measuring the binding of the anti-Tyro3 antibodies to be tested on immobilized strep-tagged entire human Tyro3 ECD captured directly on ELISA plate pre-coated with an anti-strep mAb (StrepMAB-Immo coated microplates from IBA biotech). Briefly, the 96 wells of StrepMAB-Immo coated microplate were washed three times with 300 μL of the PBS Tween 0.2% (referred as ELISA washing solution). The capture of an excess of purified strep tagged hTyro3 ECD protein was achieved by a one hour incubation at room temperature. In these experiments, 3 μg of purified protein diluted in PBS, BSA 1% (referred as ELISA diluent solution) were immobilized per well. The wells were washed three times with 300 μL of the washing solution. The non-specific binding sites on the well surface were blocked during 60 min at room temperature with 200 μL/well of blocking solution (PBS, BSA 3%). The wells were washed five times with 300 μL of the washing solution. Then, 100 μl (in duplicates) of the different concentrations of anti-Tyro3 antibodies to be tested diluted in ELISA diluent solution, were added per well and allowed to incubate during 1 hour at room temperature. An Irrelevant control IgG2656 was also added in this experiment. For anti-Tyro3 antibodies in the ScFv format, experiments were performed with 6 concentrations in duplicates (FIG. 3A). For anti-Tyro3 antibodies in the IgG format, experiments were performed with 9 concentrations in duplicates (FIG. 3B). […] For IgGs experiments, starting concentration for first dilution was 3 μg/ml and then dilutions of 3 fold in the ELISA diluent solution were performed. The wells were washed five times with 300 μL of the washing solution. […] The mix was allowed to incubated 60 min at room temperature.
Background: An ELISA detects its analyte on a solid surface through an enzyme-linked reagent.

Experiment [3] has as its target T1, recombinant His-Strep tagged human …. Nature of the experiment: BLI (Octet K2), IgG on AHC tips, hTyro3 ECD analyte, 1:1 global fit; kdis(1/s); kdis Error 3,33E-05. The procedure:
as §1

The target is the same in experiment [4]. Nature of the experiment: sandwich ELISA, Strep-tagged hTyro3 ECD captured on StrepMAB plate, IgG 3-fold from 3 µg/mL, anti-human IgG1-HRP. The procedure: as §2
The target is the same in experiment [5]. Nature of the experiment: BLI (Octet K2), IgG on AHC tips, hTyro3 ECD analyte, 1:1 global fit; KD Error 4,35E-10. As for the experimental part:
as §1

Experiment [6] shares this target. Kind of experiment: BLI (Octet K2), 1:1 global fit; analyte concentration of this kobs not given. The procedure: Affinity determinations were performed using biolayer interferometry on an Octet K2 instrument (Pall/ForteBio) equipped with anti-Human Kinetics (AHC) disposable fiber-optic biosensor tips. All experiments were conducted at 30° C. in the recommended Fortebio running buffer (PBS with 0.1% (w/v) bovine serum albumin (BSA) and 0.02% (v/v) Tween_20). This buffer was also used for dilution of ligand (here the antibody) and of the analyte (here the extra cellular domain of human Tyro3 protein). Samples in a 96-well microplates (No. Black polypropylene low binding plates, Greiner Bio-One, Frickenhausen, Germany) were agitated at 1000 rpm. […] Between measurements, the anti-human Tyro3 biosensor surfaces were regenerated by exposing them to 3 cycles of 5 sec in 10 mM glycine, pH 1.5, followed by 5 sec in PBS. Association phase was measured for 300 seconds, dissociation phase depending on the interaction for 300 seconds depending on dissociation step. All measurements were corrected for baseline drift using the double reference substraction, that is to say by subtracting a control sensor without ligand exposed to each concentration of the extra cellular domain of human Tyro3 protein and a reference well with ligand submitted to running buffer only. Affinity, association (kon) and dissociation rate constants (koff) for each antibody were calculated applying a 1:1 interaction model fitting global, Rmax linked by sensor) on the ForteBio data analysis software 9.0.

B1: IgG2713 (antibody, V domains shown)
VH: EVQLVQSGADVKKPGASLTISCQASGYTFTDYWISWVRQKPGKGLEWMGRISRHGSQTYYGPSFQGHVTISADRSTATAYLQWRSLEASDTAMYYCVRAGGQTSGGTIPEYYQHWGPGTLVTVSS
VL: SYELTQPPSVSVSPGQTARITCSGDALPKKYAYWYQQKSGQAPVLVIYEDHKRASGIPERFSGSSSGTMATLTISGAQVEDEADYYCYSISPAGNYGVFGGGTKLTVL
notes: also called IGX2713
By kon is commonly meant the rate constant with which the complex forms. As usually defined, the koff is the rate constant with which the complex falls apart. The term EC50 (read off the curve) denotes the concentration that produces a half-maximal response. One may read the Kd as the equilibrium constant for the complex coming apart. As for B1, in experiment [1], the on-rate constant (kon) was found to be 122000 M⁻¹ s⁻¹. For the same molecule, the binding result in experiment [2] is “binds”. For the same molecule, the koff in experiment [3] came out at 0.00478 s⁻¹. For the same molecule, the “EC50 (read off the curve)” value in experiment [4] is about 0.03 µg/mL. In experiment [5], the Kd came to 39.3 nM. The kobs in experiment [6] turned out to be 0.00934 s⁻¹.
